According to patent US20220306762A1 (CRYSTAL BIOSCIENCE, published 2022):
Read-outs that look alike come from different tables or passages of the source.

T1: His-tagged mouse CD38 (ACRO Biosystems CD8-M5223) (mouse, UniProt P56528 45-304)
T1 construct: bought protein; used for ELISA coating and as SPR analyte; also called Murine; not shown: His tag
T1 sequence (looked up): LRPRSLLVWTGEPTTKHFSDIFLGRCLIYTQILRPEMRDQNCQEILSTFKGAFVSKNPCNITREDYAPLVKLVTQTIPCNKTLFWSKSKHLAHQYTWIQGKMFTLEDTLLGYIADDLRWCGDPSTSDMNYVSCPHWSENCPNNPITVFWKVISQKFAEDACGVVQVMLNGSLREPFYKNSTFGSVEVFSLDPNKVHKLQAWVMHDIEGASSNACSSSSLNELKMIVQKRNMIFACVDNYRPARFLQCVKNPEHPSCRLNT

T2: Murine CD38 on transiently transfected Expi293 cells (Origene MC208001) (murine, UniProt P56528 1-304)
T2 construct: whole, on cells
T2 sequence (looked up): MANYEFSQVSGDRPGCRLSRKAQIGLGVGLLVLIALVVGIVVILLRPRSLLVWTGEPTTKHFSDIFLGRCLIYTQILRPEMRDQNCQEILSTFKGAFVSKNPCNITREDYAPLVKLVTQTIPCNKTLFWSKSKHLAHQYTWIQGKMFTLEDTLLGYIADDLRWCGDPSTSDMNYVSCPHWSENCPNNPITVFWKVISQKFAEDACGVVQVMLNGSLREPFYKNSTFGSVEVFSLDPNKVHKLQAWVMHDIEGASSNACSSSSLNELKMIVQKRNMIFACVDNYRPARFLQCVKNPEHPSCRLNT


Experiments:
[1] = target: T3, His-tagged cynomolgus monkey CD38 (ACRO Biosystems cat # CD8-05223 [sic]) (cynomolgus monkey, UniProt Q5VAN0 43-301); test: SPR (Carterra LSA), antibody captured by anti-human Fc, His-tagged CD38 injected; IgG by the head of Table 5
T3 construct: Bought His-tagged protein; also called cynomolgus CD38

[2] = target: T4, His-tagged human CD38 (ACRO Biosystems cat #CD8-H5224) (human, UniProt P28907 43-300); test: as above
T4 construct: Bought His-tagged protein

[3] = target: T5, CD38 on Daudi target cells (UniProt P28907 1-300, limits assumed); test: cell-based or functional assay
[4] = target: T5, CD38 on Daudi target cells; test: cell-based or functional assay; remark: listed apart in the source
[5] = target: T1, His-tagged mouse CD38 (ACRO Biosystems …); test: ELISA, 1 ug/ml scFv-Fc, coated His-tagged CD38
[6] = target: T6, His-tagged cynomolgus monkey CD38 (ACRO Biosystems, CD8-05223 [sic]) (cynomolgus monkey, UniProt Q5VAN0 43-301); test: ELISA, 1 ug/ml scFv-Fc, coated His-tagged CD38
T6 construct: bought protein; used for ELISA coating and as SPR analyte; not shown: His tag

[7] = target: T7, His-tagged human CD38 (ACRO Biosystems CD8-H5224) (human, UniProt P28907 43-300); test: ELISA, 1 ug/ml scFv-Fc, coated His-tagged CD38
T7 construct: bought protein; used for ELISA coating and as SPR analyte; not shown: His tag

[8] = target: T8, Human CD38 on transiently transfected Expi293 cells (Origene SC321273) (human, UniProt P28907 1-300); test: flow cytometry, 10 ug/ml scFv-Fc, transfected Expi293 cells
T8 construct: whole, on cells

[9] = target: T2, Murine CD38 on transiently transfected …; test: as above
[10] = target: T1, His-tagged mouse CD38 (ACRO Biosystems …); test: SPR, IgG
[11] = target: T6, His-tagged cynomolgus monkey CD38 (ACRO …); test: SPR, IgG
[12] = target: T7, His-tagged human CD38 (ACRO Biosystems …); test: SPR, IgG

Binder	Kd [1] [nM]	Kd [2] [nM]	Lowest Remaining Target % [3] [%]	Max RLU [3] [RLU]	PBMC ADCC EC50 [3] [ng/mL]	Reporter cell ADCC EC50 [3] [ng/mL]	ADCC EC50 [4] [ng/mL]	Lowest Remaining Target % [4] [%]	Max RLU [4] [RLU]	PBMC ADCC EC50 [4] [ng/mL]	Kd [10] [nM]	Kd [11] [nM]	Kd [12] [nM]	further results
40769p2.2.A8 (antibody, V domains shown, Human V regions from transgenic chicken, cloned as scFv-Fc; The variable domains can be found in the listing by the CDRs) VH: EVQLLESGGGLVQPGGSLRLSCAASGFTFSDYWMNWVRQAPGKGLEWVSTISISGGIIYYADSVKGRFTISRDNSKNTLYLQMNSLRAEDTAVYYCAKDNWNDYYGMDVWGQGTTVTVSS VL: QSVLTQPPSASGTPGQRVTISCSGSTSNIRDNYVYWYQQVPGTAPKLLIYKDDQRPSGVPDRFSGSKSGTSASLAISGLQSDDEADYYCATWDGSLNGRVFGGGTKLTVL	3.27	2.58	56	1.85e+06	0.273	9.82	9.82	56	1.85e+06	0.273	–	–	–	–
40769p2.2.D9 scFv-Fc (scFv, V domains shown, scFv-Fc) VH: EVQLLESGGGLVQPGGSLRLSCAGSGFTFSDYWMSWVRQAPGKGLEWVSTISITAGIIYYADSVKGRFTISRDNSKNTLYLQMNSLRAEDTAVYYCAKDNWNDYYGMDVWGQGTTVTVSS VL: QSVLTQPPSASGTPGQRVTVSCSGSRSNIRDNYVYWYQQVPGTAPKLLIYKDDQRPSGVPDRFSGSKSGTSASLVISGLQSEDEADYYCATWDGSLNARVFGGGTKLTVL	–	–	–	–	–	–	–	–	–	–	–	–	–	ELISA signal [5]: 0.043; ELISA signal [6]: 1.47; ELISA signal [7]: 1.51; FACS percent gated [8]: 92.6%; FACS percent gated [9]: 2.87%
40769p2.1.F2 (antibody, V domains shown, Human V regions from transgenic chicken, cloned as scFv-Fc; The variable domains can be found in the listing by the CDRs) VH: EVQLLESGGGLVQPGGSLRLSCVASGFTFTNYEMNWVRQAPGKGLEWVSSISITGNYIYYADSVKGRFTISRDNSKNTLYLQMNDLRAEDTAVYYCANYKSYHGMDVWGQGTTVTVSS VL: not shown	7.05	3.3	57	1.72e+06	0.293	25.3	25.3	57	1.72e+06	0.293	–	–	–	–
40769p2.1.C4 (antibody, V domains shown, Human V regions from transgenic chicken, cloned as scFv-Fc; The variable domains can be found in the listing by the CDRs) VH: EVQLLESGGGLVHPGGSLRLSCAASGFTFSDYEMNWVRQAPGKGLEWVSSISITGDFTYYADSVKGRFTISRDNSKNTLYLQMNNLRAEDTAVYYCANYKSYYGLDVWGQGTTVTVSS VL: not shown	1.12	1.46	63	1.44e+06	0.227	~12.2	~12.2	63	1.44e+06	0.227	–	–	–	–
40769p2.1.E1 IgG (antibody, V domains shown, IgG) VH: EVQLLESGGGLIQPGGSLRLSCTASGFDFSSYGMHWVRQAPGKGLEWVAIISDSGGTTYYGDSVKGRFTISRDNSKSTLYLQMNSLRAEDTALYYCASYIMDVWGQGTTVTVSS VL: QSVLTQPPSASGTPEQRVTISCSGSNSNVGDNAVYWYQQLPGTAPKLLFYGTNRRPSGVPDRFSGSKSGTSASLAISGLQSEDEADYYCAAWDDSLNAWVFGGGTKLTVL	–	–	–	–	–	–	–	–	–	–	1170	261	25.6	–
40769p2.1.G4 IgG (antibody, V domains shown, IgG) VH: EVQLLESGGGLVQPGGSLRLSCAASGFTFTSHDMNWVRQAPGKGLEWVSTITTGGNTYYADSVKGRFTISRDNSKNTLYLQMTSLRAEDTAVYYCTKHYSMDVWGQGTTVTVSS VL: QSVLTQPPSASGTPGQRVTISCSGSTSNVVFNAVYWYQQLPGTAPKLLFYGKSQRPSGVPDRFSGSKSGTSASLAISGLQSEDEADYYCAAWDDTLNGWVFGGGTKLTVL	–	–	–	–	–	–	–	–	–	–	106	73.8	35.5	–
40769p2.2.A5 IgG (antibody, V domains shown, IgG) VH: EVQLLESGGGLIQPGGSLRLSCTASGFDFSSYGMHWVRQAPGKGLEWVGIISDTGGTTYYGDSVKGRFTISRDNSKSTLYLQMNSLRAEDTALYYCASYIMDVWGQGTTVTVSS VL: QSVLTQPPSASGTPGQRVTISCSGSNSNVGDNAVYWYQQLPGTAPKLLFYGTNRRPSGVPDRFSGSKSGTSASLAISGLQSEDEADYYCAAWDDSLNAWVFGGGTKLTVL	–	–	–	–	–	–	–	–	–	–	1160	221	18.8	–
40769p2.1.H12 IgG (antibody, V domains shown, IgG) VH: EVQLLESGGGLIQPGGSLRLSCTASGFDFSSYGMHWVRQAPGKGLEWVGIISDSGGTTYYADSVKGRFTISRDNSKNTLYLQMNSLRAEDTALYYCASYIMDVWGQGITVTVSS VL: QSVLTQPPSASGTPGQRVTISCSGSNSNVGVNSVYWYQQLPGTAPKLLIYGSGRRPSGVPDRFSVSKSGTSASLAISGLQSEDEADYYCAAWDDGLNAWVFGGGTKLTVL	–	–	–	–	–	–	–	–	–	–	21400	316	160	–
40769p2.2.A6 scFv-Fc (scFv, V domains shown, scFv-Fc) VH: EVQLLESGGGLVQPGGSLRLSCAASGFTFSDYEMNWVRQAPGKGLEWVSAISITGSWTYYADSVKGRFTISRDNSENTLYLQMNNLRAEDTAVYYCANYKSYYGMDVWGRGTTVTVSS VL: QSVLTQPPSASGTPGQRVTISCSGSRSNIRNNLVNWYQQLPGTAPKLLIYNTQRPSGVPDRFSGSKSGTSASLAISGLQSEDEADYYCASWDASLNAWVFGGGTKLTVL	–	–	–	–	–	–	–	–	–	–	–	–	–	ELISA signal [5]: 0.043; ELISA signal [6]: 1.62; ELISA signal [7]: 1.75; FACS percent gated [8]: 92.2%; FACS percent gated [9]: 2.43%
40769p2.2.C11 scFv-Fc (scFv, V domains shown, scFv-Fc) VH: EVQLLESGGGLVQPGGSLRLSCAASGFTFSDYEMNWVRQAPGKGLEWVSSISITGSWTYYADSVKGRFTISRDNSKNTLYLQMNNLRAEDTAVYYCANYKSYYGMDVWGHGTTVTVSS VL: not shown	–	–	–	–	–	–	–	–	–	–	–	–	–	ELISA signal [5]: 0.043; ELISA signal [6]: 1.52; ELISA signal [7]: 1.53; FACS percent gated [8]: 92.8%; FACS percent gated [9]: 1.26%
40596p2.1.A2 IgG (antibody, V domains shown, IgG) VH: EVQLLESGGGLVQPGGSLTLSCTASGLTFSSYAMNWVRQAPGKGLEWVATISSNSGSFRSYADSVKGRFTISRDNSKSTLYLQTNSLRAEDTALYYCTKDRSITANDFTMDVWGQGTTVTVSS VL: EIVLTQSPGTLSVSPGERATLNCRASQTVGSRLAWYQQKPGQAPRLLIYGASSRATGIPARFSGSGSGTEFTLTISSLQSEDFAVYYCQQYYDWPPLTFGGGTKVEIK	–	–	–	–	–	–	–	–	–	–	6.71	–	10.9	–

More lines, main results first:

Kd [1] [nM]	Kd [2] [nM]	Lowest Remaining Target % [3] [%]	Max RLU [3] [RLU]	PBMC ADCC EC50 [3] [ng/mL]	Reporter cell ADCC EC50 [3] [ng/mL]	ADCC EC50 [4] [ng/mL]	Lowest Remaining Target % [4] [%]	Max RLU [4] [RLU]	PBMC ADCC EC50 [4] [ng/mL]	Kd [10] [nM]	Kd [11] [nM]	Kd [12] [nM]	Binder	further results
1.99	0.47	63	1.33e+06	0.0245	~13.2	~13.2	63	1.33e+06	0.0245	–	–	–	40769p2.2.E7 (antibody, V domains shown, Human V regions from transgenic chicken, cloned as scFv-Fc; The variable domains can be found in the listing by the CDRs) VH: EVQLLESGGGLVQPGGSLRLSCTGFGFTFTDARMSWVRQAPGKGLEWVADISSYGDNTYYADSVKGRFTISRDNSANTLYVQMNSLRAEDTAVYYCAKRMEREVMTIKLDYHAMDVWGQGTTVTVSS VL: QSVLTQTPSVSGTPGQRVTISCSGIFNIRNYVSWYQQLPGTAPKLLIFKDDQRLSGVPDRFSGSGSGTSASLAISGLQSEDEADYYCAAWDIFLNVWVFGGGTKLTVL	–
3.64	1.17	58	2.18e+06	0.167	~9.74	~9.74	58	2.18e+06	0.167	–	–	–	40769p2.2.C8 (antibody, V domains shown, Human V regions from transgenic chicken, cloned as scFv-Fc; The variable domains can be found in the listing by the CDRs) VH: EVQLLESGGGLVPPGGSLRLSCAASGFTFTNAWMSWVRQAPGKGLEWVSTIRSKTDGGTPYSADSVKGRFTISRDDSKNTLYLQMNSLRAEDTAVYYCAKYDYNYMDVWGQGTTVTVSS VL: QSVLTQPPSASGTPGQRVTISCSGTTSNIGRNYVHWYQQFPGTAPKLLIYRNSQRPSGVPDRFSGSKSGTSASLAISGLQSEDEADYYCAAWDDSLNGWLFGGGTKLTVL	–
